T1: EsCas13d, nuclease-dead (Eubacterium siraeum, UniProt B0MS50, R295A;H300A;R849A;H854A)
T1 sequence: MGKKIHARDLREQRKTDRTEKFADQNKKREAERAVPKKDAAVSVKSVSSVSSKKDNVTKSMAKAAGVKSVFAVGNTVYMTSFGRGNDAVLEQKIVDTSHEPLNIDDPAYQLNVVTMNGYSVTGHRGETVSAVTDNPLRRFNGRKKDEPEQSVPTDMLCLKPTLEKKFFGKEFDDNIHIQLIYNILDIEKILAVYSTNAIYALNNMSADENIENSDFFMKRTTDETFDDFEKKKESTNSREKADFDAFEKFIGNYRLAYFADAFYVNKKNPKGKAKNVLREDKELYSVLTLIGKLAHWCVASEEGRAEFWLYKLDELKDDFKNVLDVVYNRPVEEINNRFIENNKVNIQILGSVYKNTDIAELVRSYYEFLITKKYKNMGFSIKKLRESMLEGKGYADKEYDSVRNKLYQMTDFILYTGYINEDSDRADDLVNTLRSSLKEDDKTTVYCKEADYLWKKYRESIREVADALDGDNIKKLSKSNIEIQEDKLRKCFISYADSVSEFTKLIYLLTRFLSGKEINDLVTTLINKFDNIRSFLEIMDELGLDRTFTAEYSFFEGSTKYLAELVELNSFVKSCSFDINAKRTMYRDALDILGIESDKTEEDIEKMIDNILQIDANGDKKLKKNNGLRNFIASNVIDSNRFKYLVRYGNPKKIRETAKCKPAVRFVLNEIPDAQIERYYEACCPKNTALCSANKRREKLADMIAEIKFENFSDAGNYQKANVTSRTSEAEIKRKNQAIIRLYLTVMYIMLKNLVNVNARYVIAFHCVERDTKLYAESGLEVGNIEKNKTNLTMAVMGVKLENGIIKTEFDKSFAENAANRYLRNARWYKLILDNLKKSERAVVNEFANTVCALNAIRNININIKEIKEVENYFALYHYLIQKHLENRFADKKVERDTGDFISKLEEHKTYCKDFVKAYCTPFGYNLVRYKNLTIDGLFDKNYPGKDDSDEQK

B1: target 1 C2A,G13C (mixed)
RNA 1: CACCCGUGCAAAAAUGCAGGGGUCUAAAACUGAGCGGAUAACCUCUCUAUGG
RNA 2: GGGAAUGGAUCCACAUCUACGAAUUCGUACCAUAGAGACGUUAUCCGCUAACCGAGAUCGGAAGAGCACACGU
B2: target 1 insU 3' of 17,insG 3' of 7 (mixed)
RNA 1: CACCCGUGCAAAAAUGCAGGGGUCUAAAACUGAGCGGAUAACCUCUCUAUGG
RNA 2: GGGAAUGGAUCCACAUCUACGAAUUCGUACCAUAGUAGAGGUUAUCGCGCUCACCGAGAUCGGAAGAGCACACGU
B3: target 1 U10G,A16C (mixed)
RNA 1: CACCCGUGCAAAAAUGCAGGGGUCUAAAACUGAGCGGAUAACCUCUCUAUGG
RNA 2: GGGAAUGGAUCCACAUCUACGAAUUCGUACCAUAGCGAGGUGAUCCGCUCACCGAGAUCGGAAGAGCACACGU
B4: target 1 insG 3' of 9,insA 3' of 4 (mixed)
RNA 1: CACCCGUGCAAAAAUGCAGGGGUCUAAAACUGAGCGGAUAACCUCUCUAUGG
RNA 2: GGGAAUGGAUCCACAUCUACGAAUUCGUACCAUAGAGAGGUUAGUCCGCAUCACCGAGAUCGGAAGAGCACACGU
B5: target 3 insC 3' of 2,insU 3' of 1 (mixed)
RNA 1: CACCCGUGCAAAAUUGCAGGGGUCUAAAACGACCUGAAUAUUUCAGAUCAAA
RNA 2: GGGAAUGGAUCCACAUCUACGAAUUCGUUUUUGAUCUGAAAUAUUCAGGUCCUUGCAGAUCGGAAGAGCACACGU
B6: target 3 insU 3' of 11,insA 3' of 6 (mixed)
RNA 1: CACCCGUGCAAAAUUGCAGGGGUCUAAAACGACCUGAAUAUUUCAGAUCAAA
RNA 2: GGGAAUGGAUCCACAUCUACGAAUUCGUUUUUGAUCUGAAAUUAUUCAAGGUCUGCAGAUCGGAAGAGCACACGU
B7: target 3 insA 3' of 17,insA 3' of 15 (mixed)
RNA 1: CACCCGUGCAAAAUUGCAGGGGUCUAAAACGACCUGAAUAUUUCAGAUCAAA
RNA 2: GGGAAUGGAUCCACAUCUACGAAUUCGUUUUUGAUACUAGAAAUAUUCAGGUCUGCAGAUCGGAAGAGCACACGU
B8: target 3 G3U,U22A (mixed)
RNA 1: CACCCGUGCAAAAUUGCAGGGGUCUAAAACGACCUGAAUAUUUCAGAUCAAA
RNA 2: GGGAAUGGAUCCACAUCUACGAAUUCGUUAUUGAUCUGAAAUAUUCAGUUCUGCAGAUCGGAAGAGCACACGU
B9: target 3 insA 3' of 8,insC 3' of 4 (mixed)
RNA 1: CACCCGUGCAAAAUUGCAGGGGUCUAAAACGACCUGAAUAUUUCAGAUCAAA
RNA 2: GGGAAUGGAUCCACAUCUACGAAUUCGUUUUUGAUCUGAAAUAUAUCAGCGUCUGCAGAUCGGAAGAGCACACGU
B10: target 3 A9G,U21A (mixed)
RNA 1: CACCCGUGCAAAAUUGCAGGGGUCUAAAACGACCUGAAUAUUUCAGAUCAAA
RNA 2: GGGAAUGGAUCCACAUCUACGAAUUCGUUUAUGAUCUGAAAUGUUCAGGUCUGCAGAUCGGAAGAGCACACGU
B11: target 3 G4U,U7A (mixed)
RNA 1: CACCCGUGCAAAAUUGCAGGGGUCUAAAACGACCUGAAUAUUUCAGAUCAAA
RNA 2: GGGAAUGGAUCCACAUCUACGAAUUCGUUUUUGAUCUGAAAUAUACAUGUCUGCAGAUCGGAAGAGCACACGU
B12: target 3 insA 3' of 22,insU 3' of 4 (mixed)
RNA 1: CACCCGUGCAAAAUUGCAGGGGUCUAAAACGACCUGAAUAUUUCAGAUCAAA
RNA 2: GGGAAUGGAUCCACAUCUACGAAUUCGUUUAUUGAUCUGAAAUAUUCAGUGUCUGCAGAUCGGAAGAGCACACGU
B13: target 3 A5U,U22A (mixed)
RNA 1: CACCCGUGCAAAAUUGCAGGGGUCUAAAACGACCUGAAUAUUUCAGAUCAAA
RNA 2: GGGAAUGGAUCCACAUCUACGAAUUCGUUAUUGAUCUGAAAUAUUCUGGUCUGCAGAUCGGAAGAGCACACGU
B14: target 3 C1A,U7A (mixed)
RNA 1: CACCCGUGCAAAAUUGCAGGGGUCUAAAACGACCUGAAUAUUUCAGAUCAAA
RNA 2: GGGAAUGGAUCCACAUCUACGAAUUCGUUUUUGAUCUGAAAUAUACAGGUAUGCAGAUCGGAAGAGCACACGU
B15: target 3 U2G,U21A (mixed)
RNA 1: CACCCGUGCAAAAUUGCAGGGGUCUAAAACGACCUGAAUAUUUCAGAUCAAA
RNA 2: GGGAAUGGAUCCACAUCUACGAAUUCGUUUAUGAUCUGAAAUAUUCAGGGCUGCAGAUCGGAAGAGCACACGU
B16: target 3 insG 3' of 7,insG 3' of 6 (mixed)
RNA 1: CACCCGUGCAAAAUUGCAGGGGUCUAAAACGACCUGAAUAUUUCAGAUCAAA
RNA 2: GGGAAUGGAUCCACAUCUACGAAUUCGUUUUUGAUCUGAAAUAUUGCGAGGUCUGCAGAUCGGAAGAGCACACGU
B17: target 3 del5,del6 (mixed)
RNA 1: CACCCGUGCAAAAUUGCAGGGGUCUAAAACGACCUGAAUAUUUCAGAUCAAA
RNA 2: GGGAAUGGAUCCACAUCUACGAAUUCGUUUUUGAUCUGAAAUAUUGGUCUGCAGAUCGGAAGAGCACACGU
B18: target 3 insU 3' of 22,insG 3' of 5 (mixed)
RNA 1: CACCCGUGCAAAAUUGCAGGGGUCUAAAACGACCUGAAUAUUUCAGAUCAAA
RNA 2: GGGAAUGGAUCCACAUCUACGAAUUCGUUUUUUGAUCUGAAAUAUUCAGGGUCUGCAGAUCGGAAGAGCACACGU
B19: target 3 G19A,U20G (mixed)
RNA 1: CACCCGUGCAAAAUUGCAGGGGUCUAAAACGACCUGAAUAUUUCAGAUCAAA
RNA 2: GGGAAUGGAUCCACAUCUACGAAUUCGUUUUGAAUCUGAAAUAUUCAGGUCUGCAGAUCGGAAGAGCACACGU
B20: target 3 C1G,U2C (mixed)
RNA 1: CACCCGUGCAAAAUUGCAGGGGUCUAAAACGACCUGAAUAUUUCAGAUCAAA
RNA 2: GGGAAUGGAUCCACAUCUACGAAUUCGUUUUUGAUCUGAAAUAUUCAGGCGUGCAGAUCGGAAGAGCACACGU
B21: target 3 insC 3' of 9,insU 3' of 4 (mixed)
RNA 1: CACCCGUGCAAAAUUGCAGGGGUCUAAAACGACCUGAAUAUUUCAGAUCAAA
RNA 2: GGGAAUGGAUCCACAUCUACGAAUUCGUUUUUGAUCUGAAAUACUUCAGUGUCUGCAGAUCGGAAGAGCACACGU
B22: target 3 insA 3' of 4,insA 3' of 3 (mixed)
RNA 1: CACCCGUGCAAAAUUGCAGGGGUCUAAAACGACCUGAAUAUUUCAGAUCAAA
RNA 2: GGGAAUGGAUCCACAUCUACGAAUUCGUUUUUGAUCUGAAAUAUUCAGAGAUCUGCAGAUCGGAAGAGCACACGU
B23: target 3 A5G,U8G (mixed)
RNA 1: CACCCGUGCAAAAUUGCAGGGGUCUAAAACGACCUGAAUAUUUCAGAUCAAA
RNA 2: GGGAAUGGAUCCACAUCUACGAAUUCGUUUUUGAUCUGAAAUAGUCGGGUCUGCAGAUCGGAAGAGCACACGU
B24: target 3 G4A (mixed)
RNA 1: CACCCGUGCAAAAUUGCAGGGGUCUAAAACGACCUGAAUAUUUCAGAUCAAA
RNA 2: GGGAAUGGAUCCACAUCUACGAAUUCGUUUUUGAUCUGAAAUAUUCAAGUCUGCAGAUCGGAAGAGCACACGU
B25: target 3 C6A,U22G (mixed)
RNA 1: CACCCGUGCAAAAUUGCAGGGGUCUAAAACGACCUGAAUAUUUCAGAUCAAA
RNA 2: GGGAAUGGAUCCACAUCUACGAAUUCGUUGUUGAUCUGAAAUAUUAAGGUCUGCAGAUCGGAAGAGCACACGU
B26: target 3 del4,del22 (mixed)
RNA 1: CACCCGUGCAAAAUUGCAGGGGUCUAAAACGACCUGAAUAUUUCAGAUCAAA
RNA 2: GGGAAUGGAUCCACAUCUACGAAUUCGUUUUGAUCUGAAAUAUUCAGUCUGCAGAUCGGAAGAGCACACGU
B27: target 3 insA 3' of 21,insG 3' of 2 (mixed)
RNA 1: CACCCGUGCAAAAUUGCAGGGGUCUAAAACGACCUGAAUAUUUCAGAUCAAA
RNA 2: GGGAAUGGAUCCACAUCUACGAAUUCGUUUUAUGAUCUGAAAUAUUCAGGUGCUGCAGAUCGGAAGAGCACACGU
B28: target 3 G4C,U21A (mixed)
RNA 1: CACCCGUGCAAAAUUGCAGGGGUCUAAAACGACCUGAAUAUUUCAGAUCAAA
RNA 2: GGGAAUGGAUCCACAUCUACGAAUUCGUUUAUGAUCUGAAAUAUUCACGUCUGCAGAUCGGAAGAGCACACGU

Target: T1, EsCas13d, nuclease-dead
Experiment: crRNA (strand 1, pre-loaded); Mg2+; 40 mM Tris-HCl pH 7.5, 150 mM NaCl, 6 mM MgCl2, 1 mM DTT, 0.1% Tween-20, 0.2 mg/ml BSA; 25 C; 10 min per concentration, then washed
Conditions: tags: His6-TwinStrep-SUMO cleaved; N-terminal SNAP kept (SNAP-Surface 488); label: 3' end held by stalled T7 RNA polymerase

| Binder | Kd [µM] |
| --- | --- |
| B1 | 0.05 ± 0.005 |
| B2 | 0.0137 ± 0.0006 |
| B3 | 0.057 ± 0.01 |
| B4 | 0.0096 ± 0.001 |
| B5 | 0.0825 ± 0.0275 |
| B6 | 0.063 ± 0.0085 |
| B7 | 0.0369 ± 0.0081 |
| B8 | 0.0206 ± 0.00275 |
| B9 | 0.0615 ± 0.0095 |
| B10 | 0.0955 ± 0.0225 |
| B11 | 0.0104 ± 0.0014 |
| B12 | 0.00456 ± 0.00052 |
| B13 | 0.048 ± 0.01 |
| B14 | 0.0285 ± 0.014 |
| B15 | 0.0365 ± 0.007 |
| B16 | 0.0249 ± 0.0019 |
| B17 | 0.072 ± 0.009 |
| B18 | 0.0175 ± 0.0017 |
| B19 | 0.055 ± 0.008 |
| B20 | 0.0171 ± 0.0038 |
| B21 | 0.0415 ± 0.006 |
| B22 | 0.05 ± 0.0075 |
| B23 | 0.0655 ± 0.0075 |
| B24 | 0.00489 ± 0.00035 |
| B25 | 0.108 ± 0.025 |
| B26 | 0.0166 ± 0.0023 |
| B27 | 0.0398 ± 0.00375 |
| B28 | 0.087 ± 0.016 |

From paper PMC10786891, “Massively parallel profiling of RNA-targeting CRISPR-Cas13d”
